# According to patent US11285284B2, “Methods for treatment of pulmonary lung diseases with improved therapeutic efficacy and improved dose efficiency” (PNEUMA RESPIRATORY, INC., priority 2016, dated 2022):
# Values joined by “and” are separate entries in the source; they are usually repeats but may differ in a detail not shown here. Equal entries are not always repeated.
# Legend:
# [1] = tested on: patients with cystic fibrosis; conditions: cited from earlier work
# [2] = Enbrel stability after aerosol generation, size exclusion chromatography; format: physicochemical; conditions: for Peak Area %, Peak 1 / Peak Area %, Peak 2 / Peak Area %, Peak 4 / Peak Area %, Peak 5: SEC UV 280 nm
# Text: Alternately, to determine the stability of active agent after droplet generation, the generated stream of droplets including the active agent may be collected and […] may be employed to monitor for any changes in large molecule aggregation and protein fragment content. Soluble protein aggregates and protein fragment content may be calculated by comparing respective peak area under the SEC-HPLC curve of dispensed protein solutions with controls (solutions remaining in the device reservoir). Drug solutions for testing include Enbrel, (ENBREL® single-use prefilled syringes in 25 mg (0.51 mL of a 50 mg/mL solution of etanercept), and insulin, (Humalog, 200 units/ml, 3 ml […] is performed with a YarraTM 3 um SEC-2000 LC column 300×7.8 mm, SecurityGuard cartridge kit and SecurityGuard cartridges GFC-2000, 4×3 mm ID. Fifty microliters of Enbrel from the syringe (ENBREL® single-use prefilled syringes in 25 mg/0.51 mL of a 50 mg/mL solution of etanercept) is diluted (4:1) (4 parts, 200 mcl of the mobile phase buffer solution to 1 part, 50 mcl Enbrel from syringe). Fifty microliter of the diluted Enbrel is injected and separation was performed at a flow rate of 1.0 ml/min. The mobile phase buffer system included a PHOS. BUFF. SALINE. […] UV detection is performed at 280 nm. […] An ampule/cartridge is filled with either 0.20 ml of Enbrel® (50 mg/ml) diluted 4:1 (10 mg/ml)(4 parts (200 mcl) of PBS and 0.025% NaN3 and 1 part (50 mcl of Enbrel solution from the syringe). After 20 actuations and aerosolization, about 150 mcl of the aerosolized Enbrel solution is recovered and collected in the polypropylene tube located below the ejector mechanism. The control consists of the diluted Enbrel solution, 50 mcl of which is injected into the SEC column for analysis.
# [3] = Gravimetric analysis of delivered dose per actuation; format: physicochemical; conditions: for total delivered dose per actuation: from gravimetric mass and solution concentration; for average mass ejected per dose (actuation), gravimetric: solution filled ampule weighed before and after dosing, average of five doses
# Description: Gravimetric analysis was performed by weighing the Enbrel solution filled ampule before and after dosing. The average of five doses (actuations) were analyzed with an average of 4.25 mg+/−0.15 mg. The total delivered dose of Enbrel per actuation is therefore […] per actuation.
# Gravimetric analysis was performed by weighing the Insulin solution filled ampule before and after dosing. The average of five doses (actuations) were analyzed with an average of 5.01 mg+/−0.53 mg. The total delivered dose of Insulin per actuation is therefore 34.8 mcg per actuation.
# [4] = Gel electrophoresis of active agent after droplet generation; format: physicochemical
# Text: Gel Electrophoresis: To determine the stability of active agent after droplet generation, the generated stream of droplets including the active agent is collected and the molecular weight of the active agent is verified using gel electrophoresis.
# [5] = Insulin stability after aerosol generation, size exclusion chromatography; format: physicochemical
# Text: Alternately, to determine the stability of active agent after droplet generation, the generated stream of droplets including the active agent may be collected and SEC-HPLIC may be employed to monitor for any changes in large molecule aggregation and protein fragment content. Soluble protein aggregates and protein fragment content may be calculated by comparing respective peak area under the SEC-HPLC curve of dispensed protein solutions with controls (solutions remaining in the device reservoir).
# Drug solutions for testing include Enbrel, (ENBREL® single-use prefilled syringes in 25 mg (0.51 mL of a 50 mg/mL solution of etanercept), and insulin, (Humalog, 200 units/ml, 3 ml kwikpens)
# To calculate and compare effects of droplet generation through an ejector mechanism of the disclosure, the total area under the curve of the UV signal at 280 nm versus elution time for controls is compared with the aerosolized samples, which is set to 100%.
# Aerosol collection and SEC is performed in a similar fashion as for the Enbrel analysis and aerosol collection.
# Fifty microliters of the collected aerosol spray is injected onto the SEC column for analysis, while 50 mcl of the Kwikpen insulin solution is injected onto the SEC column for control samples.
# [6] = average of aerosolized S1 and S2
# [7] = control, Enbrel diluted 4:1 (10 mg/ml), not aerosolized
molecule,measurement,setting,value
NC[C@H]1O[C@H](O[C@H]2[C@H](O)[C@@H](O[C@H]3O[C@H](CO)[C@@H](O)[C@H](N)[C@H]3O)[C@H](N)C[C@@H]2N)[C@H](N)C[C@@H]1O [tobramycin],effect on pulmonary function and kidney side effects,[1]; administration by inhalation,significantly improves pulmonary function without severe side effects to kidney functions
same,toxicity of serum levels,[1]; intravenous administration,toxic to the kidneys
Enbrel,"Peak Area %, Peak 1","[2]; aerosolized with test device, 20 actuations, ret time about 5.3 min",2.796% and 3.476%
same,"Peak Area %, Peak 2","[2]; aerosolized with test device, 20 actuations, ret time about 5.8 min",90.789% and 92.112%
same,"Peak Area %, Peak 4","[2]; aerosolized with test device, 20 actuations, ret time about 13 min",0.357% and 0.352%
same,"Peak Area %, Peak 5","[2]; aerosolized with test device, 20 actuations, ret time about 25 min",5.130% and 3.428% and 5.123%
same,"Peak Area %, Peak 4, Avg.",[2]; [6],0.3545
same,"Peak Area %, Peak 5, Avg.",[2]; [6],4.2755
same,"Peak Area %, Peak 4",[2]; [7],0%
same,"Peak Area %, Peak 5",[2]; [7],0%
same,"Peak Area %, Peak 1","[2]; control, Enbrel diluted 4:1 (10 mg/ml), not aerosolized, ret time 4.3-5.3 min",2.428% and 3.041%
same,"Peak Area %, Peak 2","[2]; control, Enbrel diluted 4:1 (10 mg/ml), not aerosolized, ret time 4.8-5.8 min",96.676% and 95.909%
same,fraction of the dose forming molecular fragments,[2]; fragments with elution times of 13 and 25 minutes,4.6%
same,fraction structurally unchanged after delivering an aerosol dose,"[2]; test device, SEC",95.4%
same,total delivered dose per actuation,[3],42.5 µg
same,"average mass ejected per dose (actuation), gravimetric",[3],4.25 mg
same,change in electrophoretic mobility (molecular weight) of post-aerosol active agent versus control,[4],negligible change
"Insulin: insulin, Humalog, 200 units/ml, 3 ml kwikpens","Peak Area %, Peak 3, Avg.",[5]; [6],2.4905
same,"Peak Area %, Peak 3","[5]; control, Kwikpen insulin solution 200 U/ml, not aerosolized",0%
same,fraction of the ejected dose forming a fragment,[5]; fragment eluting at ~25 minutes,2.5%
same,fraction of the ejected dose structurally unchanged,"[5]; test device, SEC",97.5%
same,total delivered dose per actuation,[3],34.8 µg
same,"average mass ejected per dose (actuation), gravimetric",[3],5.01 mg
adalimumab,change in electrophoretic mobility (molecular weight) of post-aerosol active agent versus control,[4],negligible change
bevacizumab: antibody (Avastin),change in electrophoretic mobility (molecular weight) of post-aerosol active agent versus control,[4],negligible change
